Experiment: soluble on expression in E. coli; label from the status in PepcDB or PDB records

| Sequence | soluble on expression in E. coli |
| --- | --- |
| MGARCSKLSVCWWPPHFKSPLLENGAAADDGSGVPVFAEYSLDELRVATDGFSPERIVSEHGEKAPNVVYRGTLFSTGRTVAIKRFGRSAWPDSRQFLEEAMAVGQLRSVRLANLIGCCCENGERLLVAEFMPHETLAKHLFHWETKPLSWAMRVRAAFYVAQALEYCSSKGRALYHDLHAYRVLFDVDGNPRLSCFGLMKNSRDGKSYSTNLAFTPPEYLKTGRVIPESVVYSFGTILLDLLSGKHIPPSHALDLIRGKNYLVLMDSCLEGHVSSSDGTELIRLASRCLQYEGRDRPNLKSVVSALGNLQKDASAPSHALLGIQHDKENTERISLSAIAKVYARADLDEVHEMLENDGYCEDERATFEVSFHSWTGQQVSDSILVKKHGDSAFQSKDFATAVECYSRFIDTGVMVSPTMLARRSFVYMVLGKLQEGLADAKKAADISPEWPTAHYLQGMAYLAMGMEPEGHEELKQGAALEAERNAR | soluble |
| MGHHHHHHSHMTGRLDELEKAITTQNCNTKCVTIPSTCSEIWGLSTPNTIDQWDTTGLYSFSEQTRSLDGRLQVSHRKGLPHVIYCRLWRWPDLHSHHELKAIENCEYAFNLKKDEVCVNPYHYQRVETPVLPPVLVPRHTEILTELPPLDDYTHSIPE | soluble |
| MGSDKIHHHHHHMDDHGRSRPTQPTLYVLDTNVLIHDPNALLNFQEHRVAIPMTVLEELDKLKTGKHTIAAECRQAIRLIDQVLGEATPEQVEGGVPIQRGKNGPSGSLSILMSKRAEPITWLPEHLNDNKIINQLVELKSRHSGVRVVLVTKDINMRLKARACGVDAEDYHTDQLIDDVALLSRGYHSLAGSFWDRVSKVETRQDHGRTWHRVQLTDNLPAVHINEFIVDEQGFVGWIKGIQQDELTILDLHQEPLLHQEAWGLRPRDVYQSLALYALLDPDIHLVNLSGAAGSGKTILALAAAIEQTMVSKRYRRIIATRSVQGLDEDIGFLPGTEAEKMEPWLGAITDNLEALHMDDECTHGSVDYILSKVPLQFKSLNYIRGRSFQQSLILIDECQNLTPHQMKTIITRAGSGSKVICLGNLAQIDTPYLSATSSGLTYLTERFKDFPHGVHVTLQGVPRSVLAEYAEAHM | not soluble |
| MAIKGLEQAVENLSRISRTAVPGAAAMAINRVASSAISQSASQVARETKVRRKLVKERARLKRATVKNPQARIKVNRGDLPVIKLGNARVVLSRRRRRKKGQRSSLKGGGSVLVVGNRRIPGAFIQQLKNGRWHVMQRVAGKNRYPIDVVKIPMAVPLTTAFKQNIEQIRRERLPKELGYALQHQLRMVIKR | not soluble |
| MKDDIKRRIDLAAGRKRSQLVLKNAQILNVFSHEIISGDIAIDQGKIVGIGNYNGLENIDLEGKVVVPGLIDGHVHMESAMVTPGQFARAIVPRGTTTIVADPHEIANVCGIPGIEYMLKASEGMPLNVYMMLPSCVPATSFENAGANLKAKDLAPLINHEKVLGLGELMDYPGVIAGEESIIDKIMIAEGKMIDGHGPDIKEEALNAYVAAGVRTEHECSTVEEMINRLRLGMYILIREGSAARNLKTLVRGITPENMRRCLFCTDDKHPEDILEAGHIDHNVRVAIKEGLDPISAVKMATINAAECYGLKDLGAIAPGYRADLVVLDNLETFHVTKVFKDGKLVAQDGKAFFEAQSTEDHTVTQTVNAKELTPEDLVLSLETDIVNVIKLLPHSLVTQRVSRKVEVKEGTFRYHEDLDILKLAVIERHKRTGNIGLGLVEDFRLKGGAIASTVAHDSHNIIVIGDNDEDMLLAVNELNTVGGGITICSKGEILQTLSLPIAGLMAQGTMEEVNEQLKQMLEIAYKKLGINEQIDPFMTLSFLALPVIPELKLTDLGLFDVKNFRFISLNR | not soluble |
| MHIAILGCTSQIAKDLIRSIYVYSQHDLILFGRTPQQTQSWLAENGITSRCSVNQYEEYPNIDHDVVINFVGIGDPSKAAAMGGSIFDITLHYDELVLNELKKYPDRRYLFLSSGAAYGSSFLEPADADTPSTININNLLPQEYYSVAKLHAECRHRSLKEYAIVDLRVFNVFSRTQDLEARFFITDIVRSIHSGTELITSSDMIYRDFMHPKDFYQLVERVLNAPPMNISLDCYSRQPVDKTTLLDEMKKTFGLSYRVKESNMSINATGIKPCYYSKNKRAAEFGYLPEYSSLETIIEETNAILGLQKTVLEHHHHHH | soluble |
| MSLVNDITYGREAEVWPRDYSMLARRIQFLRFNDYPIKLVSSNGHSIIGYISKFNQKENMILASDEAKGNNRVEVKLESIASLEELLVGKDFTTRLIVGDVFNNQPCPPTKKDFFSICNKCFKQGIGIKVHMLDGRILTGKTTGVNACQVGIIKSNGNHMQIMFDWVSRITSSDYSGEGHHHHHH | soluble |
| SSYNILSQDLLEDNSHLYRHCRRPVLHWSFRFPNILKEIKHFDADVLCLQEVQEDHYGAEIRPSLESLGYHCEYKMRTGRKPDGCAICFKHSKFSLLSVNPVEFFRPDISLLDRDNVGLVLLLQPKIPYAACPAICVANTHLLYNPRRGDIKLTQLAMLLAEISSVAHQKDGSFCPIVMCGDFNSVPGSPLYSFIKEGKLNYEGLPIGKVSGQEQSSRGQRILSIPIWPPNLGISQNCVYEVQQVPKVEKTDSDLTQTQLKQTEVLVTAEKLSSNLQHHFSLSSVY | soluble |
| GPGSMLKCSLCYLASKVTAGNAKNQAGHPRRRAKLFHVVPGTPVTPFEKLKEQRRRFGQDRHSRLPEYRPGNNVRMDPNTYTLYATKKGVMTIRESRINPKYKWLDVEPDIQKVYRSRELRRALQEREMASMAVGENSNYRVELDLLLEPDWRERVMHVPKATERFKDPNLFTRGVVNELSPLDRYSYT | not soluble |
| GPGPAIGEVIGISVNDPRVKEIAEFALKQHAEQNLILAGVDAGQIIKGIPHWDNYYNLILSAKHSPHEFSKFYNVVVLEKASDNSLKLVAFVPLF | soluble |
| MGSDKIHHHHHHMNPNFTWDDLQFFLAVARTGQLSTAARRLRTSHATVSRRIDRLEFALKVKLFERNPRGYVLTTMGQRFVETAERMERETEQLQLDISDGMTAQRGVVRLSTLEGFGNFFLADRLGEFAERYPNISLELVAIQQIMSLSRKEADIAVALAAPKAGAYHAEVLTPYTLHVYGARSYLAGQPPIRTRSDLGSHRFVGYIDDMIFTPGLDYLGEIQPGLRAHFQSSSILTQLKAVRQGLGLCVLPHFMAKDEPNLEIVLPDEIELKRTYWLICHRDLIAIPRVRAVRDFLVDAAVENRGCFLRETPFALTGPRRVLERQ | not soluble |
| MSLSIAISNAIIVTQNDNRDVYRGNVKIDGNKIQYVGKDEVDGDILIDGTNKVLMPGLINTHAHVGMSASKGLFDDVDLDSFLKKTFEYDSDRTSTGIFNSAKLGMYEMIGNGITAFVDLYYSEDIIAKAAEEIGIRAFLSWVTLDKELTTQIGDPVENAENFIRNHVGNKYVVPSVGVQGIYVANDDTFRRAMDLAEKYGTILHMHLSETRKEVYDAVKKLGERPIEHLHNIGILNKRVLAAHCVWATYHEVRLLSKDGVNVSWNSISNFKLGTGGIPPIPEMMRENVNVTIGTDSNGSNNSLDMFQAMKFSAISVKNYRWDASLMKAQEILDMATRNAARALQLNAGSIEVGKLADVVLLDATIPSMIPTNEANAVSNIVYSSSPQNVDTVIIDGEIKKINGKILGFHSNKFTNSEFKEGHHHHHH | not soluble |
| HELLSREEVESILSENQLLLQVTPTAPPKTPLSVCFYQVSLEIDRPQSPLVSQSAFEEAATLYNLLPKVDSWICEQLLVDHAQAIHQKGLALAIPLSEAALLKEDFRQSLLTLVQQTLLPPQSLYWMIDESTLLQYPFAIGNFLAKLQQPGCKLIVKEFGHNLNDFELLAEHHIDYLKFNSELIAHIHINQMDEVLISIINGTAQRANIATLAGPVELPPTLSKLIDIGVDLADGTMIGRTEPLSEVLNSSYFAIK | soluble |
| MPDLMHSELTMSGPEQSLLAGALLGAGLPADAHRHLELAGRDYQSEALAEQHLREAHLLAPDHAAVLIGLYRFYFYKGRLGEALEVAQACLCKAARDNGLASDWRKVRRGDAEFSSYSAVLPRFYLFALKAYAYLQMRLGQLDEGHAAVEKLLELDPTDKVGAAVLLDVWRRIGLEHHHHHH | not soluble |
| MNKPLTPSTYIRNLNVGILRKLSDFIDPQEGWKKLAVAIKKPSGDDRYNQFHIRRFEALLQTGKSPTCELLFDWGTTNCTVGDLVDLLVQIELFAPATLLLPDAVPQTVKSLPP | soluble |
| MGSSHHHHHHSSGLVPRGSKTFIIGISGVTNSGKTTLAKNLQKHLPNCSVISQDDFFKPESEIETDKNGFLQYDVLEALNMEKMMSAISCWMESARHSVVSTDQESAEEIPILIIEGFLLFNYKPLDTIWNRSYFLTIPYEECKRRRSTRVYQPPDSPGYFDGHVWPMYLKYRQEMQDITWEVVYLDGTKSEEDLFLQVYEDLIQEL | soluble |
